The source of these data is patent US20230399394A1 (SUNSHINE GUOJIAN PHARMACEUTICAL SHANGHAI, published 2023).

In one assay the target is T1, Pep2 (human, N-terminal biotin).
T1 construct: Synthetic 20-mer of human IL-33
T1 peptide: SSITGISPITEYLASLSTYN
The experiment in a line: ELISA, biotinylated peptide on streptavidin plate. The method, then:
(§1) To determine the binding activity of antibody to each polypeptide fragment, the ELISA plate was pre-coated by biotin-avidin (SA) which was diluted in coating solution (50 mM carbonate coating buffer, pH 9.6) to 2 μg/ml at 4° C. overnight. The plate was washed with PBST for 3 times, and then blocked with 2% BSA prepared in PBS at room temperature for 2 h with 200 μL/well. The plate was washed once with PBST, and 864F3 and 874F7 with final concentrations of 10 μg/mL were added at 100 μL/well, respectively, and the plate was incubated at room temperature for 1 h. The plate was washed with PBST for 3 times, and the goat anti-mouse IgG labeled by HRP was added and placed at 37° C. for 30 min. After washing the plate with PBST for 3 times, the plate was patted on the absorbent paper to remove residual droplets as far as possible. 100 μl TMB developing solution was added to each well, and the plate was placed at room temperature (20±5° C.) for 5 minutes away from light; 50 μl 2M H₂SO₄ terminating solution was added to each well to terminate the substrate reaction. OD values were read at 450 nm on the microplate reader to analyze the binding ability of the antibody to each polypeptide fragment. The experimental results are shown in […]
(In general: In an ELISA, binding on a coated surface is turned into a signal by an enzyme label.)

A further assay concerns the target T2, Pep3 (human, N-terminal biotin).
T2 construct: Synthetic 20-mer of human IL-33
T2 peptide: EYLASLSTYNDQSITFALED
In words: ELISA, biotinylated peptide on streptavidin plate. The method, then: as §1

A further assay addresses T3, Pep5 (human, N-terminal biotin).
T3 construct: Synthetic 20-mer of human IL-33
T3 peptide: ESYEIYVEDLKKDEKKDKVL
In words: ELISA, biotinylated peptide on streptavidin plate. As for the experimental part: as §1

The target of another assay is T4, Pep7 (human, N-terminal biotin).
T4 construct: Synthetic 20-mer of human IL-33
T4 peptide: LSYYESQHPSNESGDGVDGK
The experiment in a line: ELISA, biotinylated peptide on streptavidin plate. The method, then: as §1

In a further assay the target is T5, Pep9 (human, N-terminal biotin).
T5 construct: Synthetic 20-mer of human IL-33
T5 peptide: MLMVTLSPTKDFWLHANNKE
The experiment in a line: ELISA, biotinylated peptide on streptavidin plate. As for the experimental part:
as §1

The next assay has as its target T6, Pep11 (human, N-terminal biotin).
T6 construct: Synthetic 20-mer of human IL-33
T6 peptide: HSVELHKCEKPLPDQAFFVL
In words: ELISA, biotinylated peptide on streptavidin plate. As for the experimental part: as §1

Assay [1] concerns the target T7, Pep13 (human, N-terminal biotin).
T7 construct: Synthetic 20-mer of human IL-33
T7 peptide: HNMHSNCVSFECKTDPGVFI
In words: ELISA, biotinylated peptide on streptavidin plate. The method, then: as §1

Another assay concerns the target T8, Pep15 (human, N-terminal biotin).
T8 construct: Synthetic 20-mer of human IL-33
T8 peptide: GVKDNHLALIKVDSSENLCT
The experiment in a line: ELISA, biotinylated peptide on streptavidin plate. The method, then: as §1

For assay [2], the target named is T7, Pep13. The experiment in a line: ELISA, biotinylated peptide on streptavidin plate, antibody 10 µg/mL, well 2. The method, then: as §1
The target in another assay is T9, Pep14 (human, N-terminal biotin).
T9 construct: Synthetic 20-mer of human IL-33
T9 peptide: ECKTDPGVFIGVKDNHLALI
Described as above. As for the experimental part: as §1

The target of the next assay is T10, Pep16 (human, N-terminal biotin).
T10 construct: Synthetic 20-mer of human IL-33
T10 peptide: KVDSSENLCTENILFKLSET
Described as above. As for the experimental part: as §1

For assay [3], the target named is T11, IL-33 mutant protein E44A (human, UniProt O95760 112-270).
T11 construct: Prokaryotic expression
T11 chain: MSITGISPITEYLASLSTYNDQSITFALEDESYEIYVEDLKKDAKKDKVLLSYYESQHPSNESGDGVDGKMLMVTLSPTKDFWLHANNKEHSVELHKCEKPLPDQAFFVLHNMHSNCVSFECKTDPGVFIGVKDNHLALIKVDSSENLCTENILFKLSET
The experiment in a line: ELISA as Example 9; row E44A. As for the experimental part:
(§2) SA protein was diluted to 2 μg/mL to coat ELISA plate at 100 μL/well overnight at 4° C. The plate was washed with PBST (PBS containing 0.05% Tween20) for 3 times, and blocked with 2% BSA prepared in PBS at 200 μL/well, at room temperature for 2 h. After the plate was washed twice with PBST, IL-33-his-biotin protein was diluted to 1 μg/mL with 1% BSA prepared in PBST, and was added to ELISA plate at 100 μL/well. The plate was incubated at room temperature for 1 h, and each monoclonal antibody was diluted with 1% BSA prepared in PBST in a 3-fold gradient. The highest concentration of antibody was 10 μg/mL, and the antibody was diluted for 12 gradients. Each diluted monoclonal antibody was added to ELISA wells with 100 μL/well, and the plate was incubated at room temperature for 1 h. Each sample was added to duplicate wells in parallel. The plate was washed with PBST for 3 times, and HRP-anti human IgG Fc secondary antibody prepared with PBST was diluted at an appropriate ratio, and was added to ELISA wells at 100 μL/well. […] Each reaction solution was shaken uniformly and OD450 nm was read on a microplate reader. The data was analyzed and EC₅₀ was calculated.
(§3) Subsequently, according to the experimental method of Example 9, the affinity of the above mutant proteins to 874F7-Hu1 was determined, and IL-33 proteins (WT-1, WT-2, WT-3, and WT-4) without any mutation were set as controls.

The target in assay [4] is T12, IL-33 mutant protein L50A (human, UniProt O95760 112-270).
T12 construct: Prokaryotic expression
T12 chain: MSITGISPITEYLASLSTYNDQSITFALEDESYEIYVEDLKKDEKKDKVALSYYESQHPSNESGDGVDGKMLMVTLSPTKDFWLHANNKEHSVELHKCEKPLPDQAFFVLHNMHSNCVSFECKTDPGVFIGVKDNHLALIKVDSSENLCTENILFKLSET
The experiment in a line: ELISA as Example 9; row L50A. The method, then:
as §2, §3

The target in assay [5] is T13, IL-33 mutant protein Y53A (human, UniProt O95760 112-270).
T13 construct: Prokaryotic expression
T13 chain: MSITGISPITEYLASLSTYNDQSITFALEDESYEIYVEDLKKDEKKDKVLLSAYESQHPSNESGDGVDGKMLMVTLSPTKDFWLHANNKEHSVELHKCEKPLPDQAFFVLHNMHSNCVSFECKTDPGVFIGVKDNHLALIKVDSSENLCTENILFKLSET
The experiment in a line: ELISA as Example 9; row Y53A. The method, then:
as §2, §3

For assay [6], the target named is T14, IL-33 mutant protein Q57A (human, UniProt O95760 112-270).
T14 construct: Prokaryotic expression
T14 chain: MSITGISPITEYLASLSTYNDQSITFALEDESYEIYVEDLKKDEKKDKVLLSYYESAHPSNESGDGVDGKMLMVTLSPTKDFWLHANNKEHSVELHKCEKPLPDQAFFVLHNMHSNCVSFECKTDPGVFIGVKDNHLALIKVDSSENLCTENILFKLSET
In words: ELISA as Example 9; row Q57A against WT-1. As for the experimental part:
as §2, §3

B1: 874F7 (antibody, V domains shown)
VH: QVQLKESGPGLVAPSHSLSITCNVSGFSLSKYGVHWIRQIPGRGLDWLGVLRAGGSTGYNSALMSRLSISKDSSKSQVFLKMNDLRTDDTAVYFCVRDHYYYSSYGGFVYWGQGTLVTVSA
VL: DIQMTQSPASQSASLGESVTITCLASQTIGAWLAWYRQQPGKSPQLLIYAATRLADGVPSRFSGSGSGTEFSFKINNLQAEDFVSYYCQQLDSSPYTFGGGTRLEM
notes: Murine hybridoma antibody purified on Protein G; also called murine antibody 874F7
For the molecule B1, the binding result with Pep2, with Pep3, in the assay with Pep5, with Pep7, with Pep9 and in the assay with Pep11 was “no binding (tested: 10 µg/mL)” each time. Also, the binding result with Pep13 [1] and with Pep15 was “no binding (tested: 10 µg/mL)” in each case. Moreover, the OD450 with Pep13 [2] amounted to 0.053 OD450; in the assay with Pep14 it was 0.053 OD450; with Pep16, 0.049 OD450.

B2: 874F7-Hu1 (antibody, human IgG4 S228P, kappa)
heavy: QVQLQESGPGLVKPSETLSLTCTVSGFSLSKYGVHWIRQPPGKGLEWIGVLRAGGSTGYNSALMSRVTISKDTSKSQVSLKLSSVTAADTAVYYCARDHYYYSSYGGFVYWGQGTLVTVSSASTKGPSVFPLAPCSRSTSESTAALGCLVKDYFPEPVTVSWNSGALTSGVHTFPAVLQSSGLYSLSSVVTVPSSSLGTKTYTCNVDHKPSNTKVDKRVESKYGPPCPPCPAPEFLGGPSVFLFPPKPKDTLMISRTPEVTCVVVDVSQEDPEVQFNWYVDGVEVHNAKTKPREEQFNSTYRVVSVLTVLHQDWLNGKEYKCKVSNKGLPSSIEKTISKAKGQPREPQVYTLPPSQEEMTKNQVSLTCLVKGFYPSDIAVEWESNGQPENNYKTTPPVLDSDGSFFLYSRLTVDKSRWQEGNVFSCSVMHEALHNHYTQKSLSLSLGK
light: DIQMTQSPSSVSASVGDRVTITCLASQTIGAWLAWYQQKPGKSPKLLIYAATRLADGVPSRFSGSGSGTDFTLTISSLQPEDFATYYCQQLDSSPYTFGQGTKVEIKRTVAAPSVFIFPPSDEQLKSGTASVVCLLNNFYPREAKVQWKVDNALQSGNSQESVTEQDSKDSTYSLSSTLTLSKADYEKHKVYACEVTHQGLSSPVTKSFNRGEC
notes: also called 874F7-Hul; humanized antibody 874F7-Hu1
With B2, the EC50 came to 0.13 nM in assay [3], 3.34 nM in assay [4] and 0.44 nM in assay [5]. For the same molecule, in assay [6], the Affinity decline ratio worked out at 0.5 fold.

The EC50 is the midpoint of the concentration-response curve. A lower EC50 goes with an effect from little substance.
